{"source": "patent US20260176659A1", "about": "“IMPROVED METHOD FOR THE PRODUCTION OF NATURAL VANILLIN” (BASE SE, priority 2022, published 2026)", "molecules": {"B1": {"name": "CO-01: aromatic dioxygenase from Thermothelomyces thermophilus (GenBank XP_003665585), SEQ ID NO: 26 (protein, listed as Thermothelomyces thermophilus)", "chain": "MAHIHDLAPEVSNYSSGRLTPPTPVRFPRTPVFASMNKPCRFEGDVFDLEVSGAIPPDIDGTFFRVQPDHRFPPLFEDDIHFNGDGSVTAIRISGGHADLRQRYVRTERYLLETRARRSLFGRYRNPWTDNESVRGVIRTASNTNVVFWRGALLAMKEDGPPFAMDPVTLETLGRYDFEGQILSPTFTAHPKIDPDTGEMVCFAYEAGGDGSDCSVDVAVWTVDADGKKVEECWYKAPFAGMIHDCGITKNWVVLPLTPIKMDLERMKRGGNKFAWDPSEDQWYGVVPRRGAKSDDIIWFRADNGFHGHVAGCYELPSGEIVFDLTVADGNVFFFFPPDDNITPPADGVAKRNRLSSPTVRWIFDPKAKKSAIRTEAAGDADIWVADERVKPALTWPTNGEFSRIDDRYVTKPYRHFWQAVVDPTRPYDFEKCGPPAGGLFNCLGHYTWSDQNYHHGHNTGDPSGDGRSNGSAEEATAGKFGLQDVYFAGPTMTFQEPTFIPRQGAAEGEGYLIALLNHLDELRNDVVIFEARNLGKGPLAVIHLPLKLKLGLHGNWVDSREIEAWRRRRAENGDVGPLRVAKEPLPWQKKFAAAAQNGSNGV"}, "B2": {"name": "CO-06: alkene cleavage oxygenase, Novosphingobium sp., SEQ ID NO: 38 (protein, listed as Novosphingobium sp.)", "chain": "MNIRFPNNDFTSFEAPMRAEIDLKGLEVIQGEVPRQLSGGFFRLIGDRKWPAFVENDIFMLGEDGMASCFYFKDGQVDFKMRYVRTPRFVAEEKAGRALFGHYRNPFSDDPSVAGLSRGTANVTVLVHAGKMLALKEDSPAIELDPFTLETIGEYDWGGVVTAKAITAHPKIDPKTGELVFFGYCAAGPATRDIAYYEADAEGRIIHETWFEAPYTCMVHDIMVTENYVVFPITPLRHELEWIERNEPAFKWDPSEDVYLGVLPRKGKGEQVRWFKGPNQCHGHTVGAFDDGRFIYADNTFSKRSFFHFFPNTDGSEFNPADAMPFIKRLVIDMESNDDSFTEQQMFGYPCELPRIDTRFETMPYNFVTMNLLDVPEQERIGMGFQWVATMDINGQKPAKIYYAGHDCSIGEPQFVPRSDDAAEGDGYILTVVGKHREMRSELLILDAGDITAPPIATVALPFRLRSTGHGYWYGTRQLRGETNIIGAW"}}, "key": {"[1]": {"assay": "Bioconversion of eugenol to vanillin: one-pot concurrent cascade EUGO + alkene cleavage oxygenase (5 mM scale)", "type": "biochemical", "conditions": "Table 8a, EUGO FD-CFE 1 mg/mL, CO-XX FD-CFE 1 mg/mL, catalase 10 mg/mL, eugenol 5 mM", "protocol": "Stock solutions of eugenol (100 mM) were prepared in ethanol or DMSO and stored at −20° C. Unless otherwise stated, the reaction mixtures (0.5 mL) were set up in 1.5 mL glass vials as follows: freeze-dried cell free extract of IECO/CO-XX (3 mg) and EUGO (0.5 mg) were dissolved in the reaction buffer (50 mM glycine-NaOH pH 9.0) containing sodium ascorbate (1 mM), FeSO4 (1 mM) and bovine liver catalase (5 mg, Sigma Aldrich C40). The reaction was initiated by the addition of 0.025 mL eugenol stock (final concentration 5 mM), then incubated at 30° C. and 120 rpm overnight (rotary shaker). The final content of cosolvent was 5% v/v. To improve oxygenation, the vials were placed horizontally. At certain time points, samples (0.2 mL) were quenched with methanol (0.4 mL) and the mixture was centrifuged at 20238 g for 5-10 mins. Finally, the supernatant was analysed by HPLC.\nEUGO (0.5 mg CFE), CO-25 (3 mg CFE) and catalase (5 mg, Sigma product #C40) were dissolved in 50 mM Glycine-NaOH pH 9.0 or Tris-HCl pH 8.0 together with FeSO4 (1 mM) and sodium ascorbate (1 mM). Note that the buffer content of the freeze-dried biocatalyst prep was not considered for the assembling of the reaction. The reaction was started by the addition of 5 mM eugenol from a 20× stock in ethanol. The reactions—performed in glass vials—were then incubated at 30° C. and 120 rpm (25 mm shaker). Finally, samples of the reaction mixture were diluted with MeOH and analyzed by HPLC at 280 and 340 nm."}, "[2]": {"assay": "Spectrophotometric enzymatic assay: cleaving activity, production of vanillin from coniferyl alcohol at 349 nm", "type": "biochemical", "conditions": "spectrophotometric assay", "protocol": "Stock solution 200× of coniferyl alcohol (90 mg) was prepared in ethanol (5 mL) and stored at −20° C. From this, a new stock solution 20× of coniferyl alcohol (10 mM) was freshly prepared by 1:10 dilution in Glycine-NaOH (50 mM, pH 9.0). A cuvette containing 0.750 mL Glycine-NaOH (50 mM, pH 9.0) and 0.05 mL of the substrate 20× stock was pre-warmed at 25° C. for 1.5 mins. Then, the reaction was initiated by the addition of 0.2 mL of the enzyme sample. The cleaving […] activity was measured spectrophotometrically following the production of vanillin at 349 nm (ε349=26.7 mM^−1cm^−1 experimentally determined). One unit of activity (U) is defined as the amount of enzyme required to produce 1 μmol of vanillin per min. Agilent Cary 60 UV-Vis Spectrophotometer was used for all the measurements.\nSearching for alternative novel alkene cleavage oxygenases (COs) catalysing the formation of vanillin from coniferyl alcohol was performed. A set of 27 sequences and 10 COs from different branches of the phylogenetic tree were selected, named CO-02-11. Two additional enzymes were included, which are located in different clusters of the phylogenetic tree: Lignostillbene dioxygenase from Pseudomonas brassicaceraum (PbLSD, PDB: 5V2D) and aromatic dioxygenase (Ado, CO-01) from Thermothelomyces thermophilus (GenBank ID: XP_003665585). The proteins were recombinantly expressed in E. coli BL21(DE3), following the same protocol developed for IECO. […] Putative COs were screened by spectrophotometric assay, monitoring the formation of 3a upon 2a cleavage. From a set of twelve COs, four positive hits, namely CO-01, CO-03, CO-06 and CO-07 were found. Positive variants were tested in the one pot cascade and compared them with IECO In agreement with the spectrophotometric screening, all four COs converted eugenol 1a to vanillin 3a (Table 8). The first step of the cascade is efficiently performed by EUGO, and the substrate is completely consumed. […] Overall, 70±3% conversion of 1a to vanillin 3a was achieved."}}, "data": [{"molecule": "B1", "values": [{"measurement": "Reaction composition after 24 hours 1a (%)", "setting": "[1]; pH 8.0", "result": "≤1", "unit": "%"}, {"measurement": "Reaction composition after 24 hours 2a (%)", "setting": "[1]; pH 8.0", "result": 74, "unit": "%"}, {"measurement": "Reaction composition after 24 hours 3a (%)", "setting": "[1]; pH 8.0", "result": 9, "unit": "%"}, {"measurement": "Reaction composition after 24 hours 5a (%)", "setting": "[1]; pH 8.0", "result": 17, "unit": "%"}, {"measurement": "Reaction composition after 24 hours 1a (%)", "setting": "[1]; pH 9.0", "result": 51, "unit": "%"}, {"measurement": "Reaction composition after 24 hours 2a (%)", "setting": "[1]; pH 9.0", "result": 63, "unit": "%"}, {"measurement": "Reaction composition after 24 hours 3a (%)", "setting": "[1]; pH 9.0", "result": 13, "unit": "%"}, {"measurement": "Reaction composition after 24 hours 5a (%)", "setting": "[1]; pH 9.0", "result": 24, "unit": "%"}, {"measurement": "Screening of putative COs: formation of 3a upon 2a cleavage (hit or inactive)", "setting": "[2]", "result": "positive hits"}]}, {"molecule": "B2", "values": [{"measurement": "Reaction composition after 24 hours 1a (%)", "setting": "[1]; pH 8.0", "result": 51, "unit": "%"}, {"measurement": "Reaction composition after 24 hours 2a (%)", "setting": "[1]; pH 8.0", "result": 79, "unit": "%"}, {"measurement": "Reaction composition after 24 hours 3a (%)", "setting": "[1]; pH 8.0", "result": 5, "unit": "%"}, {"measurement": "Reaction composition after 24 hours 5a (%)", "setting": "[1]; pH 8.0", "result": 16, "unit": "%"}, {"measurement": "Reaction composition after 24 hours 1a (%)", "setting": "[1]; pH 9.0", "result": "≤1", "unit": "%"}, {"measurement": "Reaction composition after 24 hours 2a (%)", "setting": "[1]; pH 9.0", "result": 71, "unit": "%"}, {"measurement": "Reaction composition after 24 hours 3a (%)", "setting": "[1]; pH 9.0", "result": 6, "unit": "%"}, {"measurement": "Reaction composition after 24 hours 5a (%)", "setting": "[1]; pH 9.0", "result": 23, "unit": "%"}, {"measurement": "Screening of putative COs: formation of 3a upon 2a cleavage (hit or inactive)", "setting": "[2]", "result": "positive hits"}]}]}
